# Measurements: IntAct's records for PubMed 25730778
# B1: Protein argonaute (Schizosaccharomyces pombe (strain ATCC 38366 / 972)), O74957 (parent)
# chain: MSYKPSSEIALRPGYGGLGKQITLKANFFQIISLPNETINQYHVIVGDGSRVPRKQSQLIWNSKEVKQYFGSSWMNSVYDGRSMCWSKGDIADGTIKVNIGSESHPREIEFSIQKSSKINLHTLSQFVNSKYSSDPQVLSSIMFLDLLLKKKPSETLFGFMHSFFTGENGVSLGGGVEAWKGFYQSIRPNQGFMSVNVDISSSAFWRNDSLLQILMEYTDCSNVRDLTRFDLKRLSRKFRFLKVTCQHRNNVGTDLANRVYSIEGFSSKSASDSFFVRRLNGEEQKISVAEYFLENHNVRLQYPNLPCILVKNGAMLPIEFCFVVKGQRYTAKLNSDQTANMIRFAVQRPFERVQQIDDFVHQMDWDTDPYLTQYGMKIQKKMLEVPARVLETPSIRYGGDCIERPVSGRWNLRGKRFLDPPRAPIRSWAVMCFTSTRRLPMRGIENFLQTYVQTLTSLGINFVMKKPPVLYADIRGSVEELCITLYKKAEQVGNAPPDYLFFILDKNSPEPYGSIKRVCNTMLGVPSQCAISKHILQSKPQYCANLGMKINVKVGGINCSLIPKSNPLGNVPTLILGGDVYHPGVGATGVSIASIVASVDLNGCKYTAVSRSQPRHQEVIEGMKDIVVYLLQGFRAMTKQQPQRIIYFRDGTSEGQFLSVINDELSQIKEACHSLSPKYNPKILVCTTQKRHHARFFIKNKSDGDRNGNPLPGTIIEKHVTHPYQYDFYLISHPSLQGVSVPVHYTVLHDEIQMPPDQFQTLCYNLCYVYARATSAVSLVPPVYYAHLVSNLARYQDVTADDTFVETSEASMDQEVKPLLALSSKLKTKMWYM
# partner: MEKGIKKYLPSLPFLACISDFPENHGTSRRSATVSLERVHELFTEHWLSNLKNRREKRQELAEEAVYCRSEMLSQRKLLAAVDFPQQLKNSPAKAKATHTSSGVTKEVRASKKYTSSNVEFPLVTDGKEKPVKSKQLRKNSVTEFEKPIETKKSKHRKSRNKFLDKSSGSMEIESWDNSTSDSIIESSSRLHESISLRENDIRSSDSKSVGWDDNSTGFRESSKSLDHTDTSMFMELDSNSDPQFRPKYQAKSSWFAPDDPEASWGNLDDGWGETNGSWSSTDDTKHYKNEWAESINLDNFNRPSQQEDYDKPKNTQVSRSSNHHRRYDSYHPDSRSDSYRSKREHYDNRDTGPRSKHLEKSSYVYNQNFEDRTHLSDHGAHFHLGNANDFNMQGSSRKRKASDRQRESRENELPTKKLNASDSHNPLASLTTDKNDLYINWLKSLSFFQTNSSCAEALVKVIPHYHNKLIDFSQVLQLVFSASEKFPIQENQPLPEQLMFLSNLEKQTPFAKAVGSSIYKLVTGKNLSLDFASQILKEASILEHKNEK
# Variants of: B1
# Settings: with tas3_schpo tas3, O94687
row,effect of a mutation on the interaction,Variant
1,disrupting interaction strength,R773E
2,disrupting interaction strength,F276A;R773E
